# According to the DeepSol protein solubility set:
# Experiment: soluble on expression in E. coli; label from the status in PepcDB or PDB records
row,Sequence,soluble on expression in E. coli
1,MSKKVAIVGAGPGGLATAIRLAGLGYQVEIFEAAERVGGRMRGFEVDSYAFDTGPTILQLPHLYKELFEEAGLNFADYVQLKRLEPYTRLKFWDGTQLDITSDLQSFKTQLATLRSDLPLAFDRWYSEHIRKYELGYKPYLAGPARSIFGYLRPDELMKFLSFRPWENLYQHFWRFFQDERLVYALSYPSKYLGMHPTVASSVFSLIPFLEFSQGVWHPVGGFRALAQGLANAAQDLGVKIHLHSPVHQIWIEQGQVRGLELADASRHQFDTVVINADFAYAVRHLLPTSARGRYTDNKLGQMQFSCSTFMLYLGINRRYEDLPHHQIYLSDNIRRLERPWVDDSALDETDPPFYVCNPTIIDPSNAPAGHSTLFVLVPIPNTSYAVDWDIKQKSYTDFILKRLHLLGYHNIEQHIVTQSCYTAQSWLDDYRVHLGAVFNLSHNLTQLGPFRPPIRSENIAGLYWIGGAVHPGSGLLTILEASRSAAGFIHQDFASTGSLEHHHHHH,not soluble
2,MSDVAETLDPLRLPLQGERLIEASAGTGKTFTIAALYLRLLLGLGGSAAFPRPLTVEELLVVTFTEAATAELRGRIRSNIHELRIACLRETTDNPLYERLLEEIDDKAQAAQWLLLAERQMDEAAVFTIHGFCQRMLNLNAFESGMLFEQQLIEDESLLRYQACADFWRRHCYPLPREIAQVVFETWKGPQALLRDINRYLQGEAPVIKAPPPDDETLASRHAQIVARIDTVKQQWRDAVGELDALIESSGIDRRKFNRSNQAKWIDKISAWAEEETNSYQLPESLEKFSQRFLEDRTKAGGETPRHPLFEAIDQLLAEPLSIRDLVITRALAEIRETVAREKRRRGELGFDDMLSRLDSALRSESGEVLAAAIRTRFPVAMIDEFQDTDPQQYRIFRRIWHHQPETALLLIGDPKQAIYAFRGADIFTYMKARSEVHAHYTLDTNWRSAPGMVNSVNKLFSQTDDAFMFREIPFIPVKSAGKNQALRFVFKGETQPAMKMWLMEGESCGVGDYQSTMAQVCAAQIRDWLQAGQRGEALLMNGDDARPVRASDISVLVRSRQEAAQVRDALTLLEIPSVYLSNRDSVFETLEAQEMLWLLQAVMTPERENTLRSALATSMMGLNALDIETLNNDEHAWDVVVEEFDGYRQIWRKRGVMPMLRALMSARNIAENLLATAGGERRLTDILHISELLQEAGTQLESEHALVRWLSQHILEPDSNASSQQMRLESDKHLVQIVTIHKSKGLEYPLVWLPFITNFRVQEQAFYHDRHSFEAVLDLNAAPESVDLAEAERLAEDLRLLYVALTRSVWHCSLGVAPLVRRRGDKKGDTDVHQSALGRLLQKGEPQDAAGLRTCIEALCDDDIAWQTAQTGDNQPWQVNDVSTAELNAKTLQRLPGDNWRVTSYSGLQQRGHGIAQDLMPRLDVDAAGVASVVEEPTLTPHQFPRGASPGTFLHSLFEDLDFTQPVDPNWVREKLELGGFESQWEPVLTEWITAVLQAPLNETGVSLSQLSARNKQVEMEFYLPISEPLIASQLDTLIRQFDPLSAGCPPLEFMQVRGMLKGFIDLVFRHEGRYYLLDYKSNWLGEDSSAYTQQAMAAAMQAHRYDLQYQLYTLALHRYLRHRIADYDYEHHFGGVIYLFLRGVDKEHPQQGIYTTRPNAGLIALMDEMFAGMTLEEA,soluble
3,MSSKPLLTLQELAAQNILRNEALAISALQYLPELFLPQLLKQAYDGNHLKVLRAIVSSWPFPRLPLGALKKRTPYLETQLQVVLEEVDKLLIQEVHPREYKLEVLDLRSVGQNYLNVWPGAMDDWLPKTTQTDPCCSKTVMTQPLKVLVDLQLNNRGQSRLFSYLVQWSDRRKGLLQLYCNKLQIWSPSQQNYRKLSQKVNLDYVETLGLHSSCSPSFLLNFAPYLRQMRNLRKLALSNIREEHIISPEKRRCIITRFTLQILKLESLQKLHLDAVCFLEGHLDQLLGSVKTSLDELAVTHCNLSVSEWSHFSEFPCVSQLQQLNLENVRLTGLSPEPLQVLLVKAGPTLVALDLEDCHLEDGQLYAILPALSKCFKLTKFSFYGNQISMLAMKDLLHHTASLIHLRLELYPVPQDSYDYHGTPLMQRMQQHCDELMNLLKTFRNPGRVFFGTDRCDQCCNRYIYNKTIMCNCRRSY,not soluble
4,MYLRPDEVARVLEKAGFTVDVVTNKTYGYRRGENYVYVNREARMGRTALIIHPRLKDRSSSLADPASDIKTCDHYQNFPLYLGGETHEHYGIPHGFSSRIALERYLNGLFGDEKTD,not soluble
5,MGSDKIHHHHHHMAKVFLKRMNRRISGGHLWIFYNEILKVEGEYENGSVVDVFRPDGSFFGKGYINDNSKIRVRILTWKNEVIDRNFIKNRIESALKRKKKLVKETTAFRVVHSEGDFLPGLIVDLFGDYLVFQITTLGMEKMKDWILDSLVEIFKPKGIYEKSEGTFREKEGLDNREEWVYGKGPELIEFEMNGFKFLADTRGQKTGFFLDQRENARMVMDLAEGKVCLDVFSYTGNFAVHLLKGGAKHVTLVDYSERALEVAREILKLNGFDSSRYDLLPGNAFDILKSFDREGRKYDLVVLDPPSFAKSSSNLESARRGYKEINLRAMRILKKPGVLVTSSCTQIVSEELFREILFDASFDTKTSLTVLRRGGQPPDHPVLMNVPETQYLKFYILQVDKR,not soluble
6,MRKLKMMLCVMMLPLVVVGCTSKQSVSQCVKPPPPPAWIMQPPPDWQTPLNGIISPSGNDWLEHHHHHH,not soluble
7,MKFAVVVFPGSNCDVDMYHAIADELGEEVEYVWHDEDDLDRFDAILLPGGFSYGDYLRSGAIARFSKVMAAVKKAAEAGKPVLGVCNGFQILLEAGLLPGAMRRNQGLKFICRPVQLTVENHETIFTSAYEKGEVITIPIAHGEGNYYCDEQTLERLVENRQIVFRYHGENPNGSLADIAGIVNERGNVLGMMPHPERAVDALLGSADGLKLFRSIVNYWRETHVVTA,not soluble
8,MANLKRYNDGLFKLDLWIRRLLTIGESNELYTALCDGVCDIVGAGTAVFTTIDMQAGTLTYMAASGGWNAMVKGLAVPMKSGNLCASVAACGTPLRIDQISSRTDSCELLQVMDMDAAVLVPVLEEGRVTACLSAFRVGNPFDQIDEQLLQQYAHTASMVLRTVRLMVDLR,not soluble
9,MGSDKIHHHHHHVERIETHDATPGVVVEALTRGPGAICIRGLFSESQIAEARRVVMAHSEDRAQTVTHFQGQAAEEQRLHLQRRVWNLLAKGGVFSEMSEQPVIVGAMRRFLGDDFIMGSIAANRILPGGPGQEPHIDYPYWDYHMPDTFPLGINTSFALNAQVTIPLDPFTAETGATAFVPHTQHELRYPAEGDRFFERCQRMTAEPGDAIVFFGATWHCAMPNRSTQDRSAVLIQYLPKFVKPMEDLRAMVGEDFVRRASPTMRQLLGLNFPYPQNLDEIAVATNAEGRKNAMR,not soluble
10,MNELKNAQTASAHRILLPLLRCIASGAADVTEEGNEIVLRRKRPGQAVQRFPTETVRLAVSSGLLEWRQNSLSAAPPLASYLKRATAKDRDEVFQEQHRDIQTVVVEIDETKQPARRNLNTAPLTSLSRLKERDGSAFFPEDALAAGERLAADFHRGHLNPRVTATWEPRIASRGKGEAGGALDLTEAAMAARARFSRAADAMGPELSGVAIDICCFEKGLETVERERLWPARSAKLLLRAALLSLARHYAPPVPPARGKDRPKERHWGDADYRPSLR,not soluble
11,MGSDKIHHHHHHMLVNAYFIKLDSCQLPPRDLAVSVFLNLSKFNMPLTMPHLLELFVDSYFIEKKKRLRQCLQEPLDCGPVFHFSEPWEGLLSGYCTVLEDPLDGYFKLYYRGLSDGNLECSDGEVTCLALSHNGVEWFRPNLGLHKWLNRKSTNIILANNTPDSHNFTPFLDSSPTTLSHQRYKALAGVAPSGLNAYFSADGINWTNPYSKPVLTTGMFDSQNVAFWSSSEQKYVCFMRTWTGEGFSGIRTISRSTSTDFSSWTVPRRMSFGRIPLEHLYTNQTQPYPRAQQIYIGLAARFMPERQVITTEEALELSVDPSYYRDCSDVVLITSRGGNRYHRAVRQAFLKPGIGLENWVSRTNFPALGFIHTKPDEISFYMNKNYAQPNAYLSRFSFPLDRLGYLEASDSYGELITKSIPISSQDDLHLNLSTSAAGSCFVALLDENDATVSQFDMSSCLELIGNELSKPVRWLSSNGVSLRIGDSGLSSVKLHIRLLDARLFAFSLCSTDR,not soluble
12,MEKTVIGVVHLLPLPGSPEHTDLSAVIDKAVKDARAIEEGGADALILENYGDKPFLKEVGKETVAAMTVIACEVKRDVSIGLGINVLRNDAVAALAIAKAVNADFVRVNQLFFTSVSPEGILEGKAGEVMRYKKLVDCRAMIFADIAVKHAVHFASLEDYCLNAERSLADAVILTGKTTGGEVSLEELKYAKKTLKMPVLAGSGVNAENAARILKWCDGVIVGTYIKRGGLVDAERVRRIVRAAKGLEHHHHHH,not soluble
13,MRRFDCTVVAIHDDASLGCRLPGANKALRIQLNAVELPAAEPWRRRAREALEDMLLGKSATIREQGRDARFRILGAAWVTPADCPTCGHTLDAGLALLTIGLASWRDAPDSGQTAEARGQYRFAEEEARARKAGQWRP,soluble
14,MKENIEKLFQAIAQKNPIHSKYLKKIEFSQEDEEEFDKLISYYIQDGISIKEQCDCYLLILNDTLEETKFFIENGAYRYSSFDEVKDKVYFNESYMKQYMIGLALSSFVWIAHIKVRKYFSQYLQNFTPKTTYFEIGPGHGEYFARAVKSGKFSAFYGLDISPTSCELTQKMVKQQVGGLITKCDFLCQDFFTYDFDKKADLIVIGEVLEHVEKPLEFLKRSKELLSDGGEIFATIPINAPAIDHIYLFSHPDEVKDLIEKSGLKFKAYECFMANDYSLEKALKFKNAITMAVVLNALEHHHHHH,soluble
15,MLSGPHPSPTFRPNPCPWPCLHSLWMEISPTQLCFLSPGPSPQSPSCCFQGMNSGSELGKLWRKLFKGIPRLSVSHFDFYCGTCVLLGRPQIPQGSSLGNDIDQYPVVFRNASDQGSWMQLEMLLRKLSDLVWTSDALSDKILEDGLVP,soluble
16,MGLIMAKLFQSWWIGKKYKIIVVGLDNAGKTTILYNYVTKDQVETKPTIGSNVEEVSYRNLDFVIWDIGGQESLRKSWSTYYVQTDVVIVVIDSSDTTRIPIMKEQLHNMLQHEDLARAHILVLANKQDLPGAMNPAEVSTQLGLQTLRGARKWQINGCCAVKGEGLPEALEWIANNL,not soluble
17,MGLTAGIVGLPNVGKSTLFNAITQAGAESANYPFCTIDPNVGIVEVPDERLNKLTELVEPKKTVPTVFEFTDIAGIVKGASKGEGLGNKFLSHIRQVDAICQVVRCFEDENITHVSGKVDPIDDIETINLELILADLESVDKRIERVAKLARQKDKEAVYEHEILVRLKEAFEEGKPARTVEFTEEQMKIVKGLHLLTTKEMLYVANVSEDDVIDPSENKYVQMVKEFAANENSQVIVVCAKIESEIAELDEEEKKVFLEELGIEESGLDQLIRAAYDLLGLATYFTAGVQEVRAWTFKQGMKAPQCAGVIHTDFERGFIRAETVSYEDLMTNGSMTAAKEAGKVRLEGKEYIVKDGDVMHFRFNV,soluble
18,MQQFATLSLASLLMLGTFTAFAAENGDAPASGWHIDDSATKGASGQQGMFDGVRLTEQQRQQMRDLMHQSRQDKPAFNTEDVKAMHKLVTAETFDEAAVRAQITRMMSVQIERQIQMTRVRNQMYNLLTPAQKEILELKHKQRMKEMQQQISMFNQMVAPSSGTTNHTETDSPELEHHHHHH,soluble
